Assay results taken from PMC6273018, “Effects of Flavonoids in Lysimachia clethroides Duby on the Activities of Cytochrome P450 CYP2E1 and CYP3A4 in Rat Liver Microsomes” (Molecules, 2016).

Substrate: O=[N+]([O-])c1ccc(O)cc1
Experiment: cells, lysate or membranes named
Settings: other: Lineweaver-Burk plot; rat liver microsomes; pH 7.4
Procedure: The rats were fasted for 12 h with free access to water and then sacrificed by cervical dislocation. The liver was removed promptly and washed with ice-cold physiological saline solution to yellowish brown. […] The liver homogenate solution was centrifuged at 4 °C for 20 min at 12,000 r·min^−1 and supernatant fraction was reserved. The supernatant per millilitre was added with 0.1 mL CaCl2 (88 mM), gently shaken and kept at 0 to 4 °C for 5 min. The mixed solution was transferred to centrifuge tubes and centrifuged at 4 °C for 30 min at 15,000 r·min^−1. […] Protein concentration of the microsomes was determined by the method of Bradford. […]
The apparent Km (Michaelis constant) value was calculated according to the Michaelis-Menten equation and Lineweaver-Burk plot.
Group 1 (normal control) was added with phosphate buffer, group 2 (flavonoids reagent group) were added with flavonoids, and group 3 was given clomethiazole as positive control. […] The concentrations of probe substrate metabolites were calculated from the standard curves. The percentage of inhibition was calculated using the formula: %Inhibition = ((A0 − A1)/A0) × 100%, in which A0 was the concentration of probe substrate metabolite of group 1 and A1 was the concentration of probe substrate metabolite of group 2 and 3. The IC50 values were calculated based on the concentration-effect linear regression curve.

B1: CYP2E1 (Rattus norvegicus) (protein)
chain: MAVLGITIALLVWVATLLVISIWKQIYNSWNLPPGPFPLPILGNIFQLDLKDIPKSFTKLAKRFGPVFTLHLGSRRIVVLHGYKAVKEVLLNHKNEFSGRGDIPVFQEYKNKGIIFNNGPTWKDVRRFSLSILRDWGMGKQGNEARIQREAQFLVEELKKTKGQPFDPTFLIGCAPCNVIADILFNKRFDYNDKKCLRLMSLFNENFYLLSTPWIQLYNNFADYLRYLPGSHRKIMKNVSEIKQYTLEKAKEHLQSLDINCARDVTDCLLIEMEKEKHSQEPMYTMENVSVTLADLFFAGTETTSTTLRYGLLILMKYPEIEEKLHEEIDRVIGPSRVPAVRDRLDMPYMDAVVHEIQRFINLVPSNLPHEATRDTVFQGYVIPKGTVVIPTLDSLLYDSHEFPDPEKFKPEHFLNENGKFKYSDYFKAFSAGKRVCVGEGLARMELFLLLSAILQHFNLKSLVDPKDIDLSPVTVGFGSIPPQFKLCVIPRS
Km: 90.92 µM
